This note sets out measurements from patent US20220332804A1 (CSL INNOVATION, published 2022).

Substitutions are numbered along the chain they refer to.

Test in all cases: SPR, KD relative to WT C2;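 also: biacore SPR at 37 °C, anti-C2 mAbs captured via immobilised goat anti-human IgG, C2 alanine or serine surface mutants as analytes, 1:1 model fitted, double-referenced sensograms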
On the technique in general: In SPR one partner is held on a chip, and binding of the other changes the refractive index at the surface.

The target in one assay is T1, human C2 G530A (human, UniProt P06681 21-752).
T1 sequence: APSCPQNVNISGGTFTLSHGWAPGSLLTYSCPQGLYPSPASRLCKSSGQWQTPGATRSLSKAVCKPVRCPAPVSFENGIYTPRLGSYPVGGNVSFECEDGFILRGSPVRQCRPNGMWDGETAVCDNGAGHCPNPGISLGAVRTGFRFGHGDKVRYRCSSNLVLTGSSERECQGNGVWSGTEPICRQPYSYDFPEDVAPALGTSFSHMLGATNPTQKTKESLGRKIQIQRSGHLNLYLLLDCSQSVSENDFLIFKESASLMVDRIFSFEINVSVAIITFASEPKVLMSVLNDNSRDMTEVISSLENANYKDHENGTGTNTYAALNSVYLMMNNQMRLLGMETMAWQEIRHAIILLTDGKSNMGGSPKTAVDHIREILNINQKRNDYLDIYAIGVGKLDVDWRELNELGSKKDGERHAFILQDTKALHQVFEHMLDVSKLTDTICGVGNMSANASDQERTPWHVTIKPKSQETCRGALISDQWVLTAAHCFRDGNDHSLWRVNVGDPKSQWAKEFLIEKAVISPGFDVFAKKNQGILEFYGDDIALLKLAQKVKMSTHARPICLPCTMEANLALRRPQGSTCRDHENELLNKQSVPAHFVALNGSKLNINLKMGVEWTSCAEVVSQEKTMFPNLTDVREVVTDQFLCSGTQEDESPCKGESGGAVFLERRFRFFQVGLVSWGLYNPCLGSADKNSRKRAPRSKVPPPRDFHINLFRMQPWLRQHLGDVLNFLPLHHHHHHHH

The target in the next assay is T2, human C2 Q489A (human, UniProt P06681 21-752).
T2 sequence: T1 sequence with Q469A, A510G

The next assay concerns the target T3, human C2 K550A (human, UniProt P06681 21-752).
T3 sequence: T1 sequence with A510G, K530A

The target in a further assay is T4, human C2 T317A (human, UniProt P06681 21-752).
T4 sequence: T1 sequence with T297A, A510G

B1: RF16-226 (antibody, human IgG4 S228P, lambda)
heavy: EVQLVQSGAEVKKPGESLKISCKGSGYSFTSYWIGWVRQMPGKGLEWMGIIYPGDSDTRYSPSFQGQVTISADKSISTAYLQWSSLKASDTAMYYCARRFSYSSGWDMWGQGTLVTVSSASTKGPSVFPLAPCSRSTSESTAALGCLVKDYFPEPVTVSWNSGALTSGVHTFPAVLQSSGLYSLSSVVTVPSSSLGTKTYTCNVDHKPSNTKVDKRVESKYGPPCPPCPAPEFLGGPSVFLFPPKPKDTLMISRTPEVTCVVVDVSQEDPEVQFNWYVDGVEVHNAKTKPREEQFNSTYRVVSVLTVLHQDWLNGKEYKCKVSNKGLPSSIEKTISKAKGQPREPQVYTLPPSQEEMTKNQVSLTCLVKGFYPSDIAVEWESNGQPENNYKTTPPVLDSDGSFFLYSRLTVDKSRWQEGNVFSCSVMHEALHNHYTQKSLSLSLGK
light: SYELTQPPSVSVSPGQTARITCSGDALTSKYVAWYQQKSGLAPLLVIYEDTRRPSGIPAKFSGSSSGSVATLTISGAHGDDEADYYCYSTDASGHQRVFGGGTKLTVLSQPKAAPSVTLFPPSSEELQANKATLVCLISDFYPGAVTVAWKADGSPVKAGVETTKPSKQSNNKYAASSYLSLTPEQWKSHRSYSCQVTHEGSTVEKTVAPTECS
notes: pH-dependent anti-C2 antibody from a phage display library; also called WT
Consider B1, for which the Fold diff was found to be 2 fold with human C2 G530A, 10 fold with human C2 Q489A, 1 fold with human C2 K550A and 1 fold with human C2 T317A.
